Measured values reported in article PMC7852545, “Cell fate determined by the activation balance between PKR and SPHK1” (Cell Death and Differentiation, 2020).

Tests used:
[1] = molecular target: SPHK1 (sphingosine kinase 1) (UniProt Q9NYA1); assay: Co-IP of Flag-PKR with endogenous SPHK1; settings: reference: wild-type PKR-Flag; sites T451
[2] = molecular target: SPHK1 (sphingosine kinase 1) (UniProt Q9NYA1); assay: GST-SPHK1 pull-down of Flag-purified PKR; settings: reference: wild-type PKR-Flag; sites T451
[3] = molecular target: T1, GST-PKR (human, UniProt P19525 1-551); assay: pull-down; Flag-tagged SPHK1 (wild type, 225A, 225D) immunoprecipitated with anti-Flag from HEK293T lysates, purified and co-incubated with GST-PKR; settings: both partners purified
T1 construct: double-stranded RNA-dependent protein kinase R (PKR), human, full-length cDNA; also called PKR (in vitro); source: prokaryotic expression (pGEX-4T1/pET28a vectors)

[4] = molecular target: T2, PKR-Flag (wild type) (human, UniProt P19525 1-551); assay: pull-down; Flag-tagged PKR (wild type, 451A, 451D) purified from HEK293T and co-incubated with GST-SPHK1; settings: both partners purified
T2 construct: double-stranded RNA-dependent protein kinase R (PKR), human, full-length cDNA; also called wild-type PKR; Flag-PKR; source: HEK293T, transfected, in lysate; also purified from the lysate for the GST pulldown; not shown: Flag, C-terminal, kept

[5] = molecular target: T3, PKR^451D-Flag (human, UniProt P19525 1-551, T451D); assay: as above; settings: both partners purified
T3 construct: double-stranded RNA-dependent protein kinase R (PKR), human, full-length cDNA, point mutant at Thr451; also called T451D; source: HEK293T, transfected, in lysate; also purified from the lysate for the GST pulldown; not shown: Flag, C-terminal, kept

[6] = molecular target: T4, PKR^451A-Flag (human, UniProt P19525 1-551, T451A); assay: as above; settings: both partners purified
T4 construct: double-stranded RNA-dependent protein kinase R (PKR), human, full-length cDNA, point mutant at Thr451; also called T451A; source: HEK293T, transfected, in lysate; also purified from the lysate for the GST pulldown; not shown: Flag, C-terminal, kept
T4 sequence (P19525 whole entry T451A): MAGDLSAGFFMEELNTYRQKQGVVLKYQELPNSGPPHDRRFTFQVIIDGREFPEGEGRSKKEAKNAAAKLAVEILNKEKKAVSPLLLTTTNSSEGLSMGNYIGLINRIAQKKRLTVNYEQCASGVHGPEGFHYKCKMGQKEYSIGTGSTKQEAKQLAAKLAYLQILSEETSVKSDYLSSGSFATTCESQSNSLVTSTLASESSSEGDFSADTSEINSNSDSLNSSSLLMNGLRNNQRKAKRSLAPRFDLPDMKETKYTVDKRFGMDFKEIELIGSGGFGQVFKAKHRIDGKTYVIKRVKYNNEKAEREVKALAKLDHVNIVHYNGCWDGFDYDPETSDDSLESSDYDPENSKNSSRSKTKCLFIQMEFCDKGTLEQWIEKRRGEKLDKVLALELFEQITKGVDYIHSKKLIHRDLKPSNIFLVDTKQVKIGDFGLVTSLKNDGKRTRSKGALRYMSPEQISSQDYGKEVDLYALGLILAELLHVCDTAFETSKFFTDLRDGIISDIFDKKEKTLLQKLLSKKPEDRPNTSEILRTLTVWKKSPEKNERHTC

T2 sequence (P19525 whole entry): as the sequence (P19525 whole entry T451A) above, with A451T counted along it
T1 sequence (P19525 whole entry): as the sequence (P19525 whole entry T451A) above, with A451T counted along it
T3 sequence (P19525 whole entry T451D): as the sequence (P19525 whole entry T451A) above, with A451D counted along it

Molecule: PKR (dsRNA-dependent protein kinase R) (from UniProt P19525) T451A
- binding against the reference [1]: stronger
- binding against the reference [2]: stronger

B1: SPHK1^225D-Flag (phosphomimetic mutant of SPHK1) (enzyme, human, UniProt Q9NYA1 1-384, looked up)
chain: MDPAGGPRGVLPRPCRVLVLLNPRGGKGKALQLFRSHVQPLLAEAEISFTLMLTERRNHARELVRSEELGRWDALVVMSGDGLMHEVVNGLMERPDWETAIQKPLCSLPAGSGNALAASLNHYAGYEQVTNEDLLTNCTLLLCRRLLSPMNLLSLHTASGLRLFSVLSLAWGFIADVDLESEKYRRLGEMRFTLGTFLRLAALRTYRGRLAYLPVGRVGSKTPADPVVVQQGPVDAHLVPLEEPVPSHWTVVPDEDFVLVLALLHSHLGSEMFAAPMGRCAAGVMHLFYVRAGVSRAMLLRLFLAMEKGRHMEYECPYLVYVPVVAFRLEPKDGKGVFAVDGELMVSEAVQGQVHPNYFWMVSGCVEPPPSWKPQQMPPPEEPL
notes: sphingosine kinase 1 (SPHK1), human, full-length cDNA, point mutant at Ser225; source: HEK293T, transfected, in lysate; also purified from the lysate with anti-Flag for the GST pulldown; not shown: Flag, C-terminal, kept
- binding result [3]: binds

B2: GST-SPHK1 (enzyme, human, UniProt Q9NYA1 1-384, looked up)
chain: MDPAGGPRGVLPRPCRVLVLLNPRGGKGKALQLFRSHVQPLLAEAEISFTLMLTERRNHARELVRSEELGRWDALVVMSGDGLMHEVVNGLMERPDWETAIQKPLCSLPAGSGNALAASLNHYAGYEQVTNEDLLTNCTLLLCRRLLSPMNLLSLHTASGLRLFSVLSLAWGFIADVDLESEKYRRLGEMRFTLGTFLRLAALRTYRGRLAYLPVGRVGSKTPASPVVVQQGPVDAHLVPLEEPVPSHWTVVPDEDFVLVLALLHSHLGSEMFAAPMGRCAAGVMHLFYVRAGVSRAMLLRLFLAMEKGRHMEYECPYLVYVPVVAFRLEPKDGKGVFAVDGELMVSEAVQGQVHPNYFWMVSGCVEPPPSWKPQQMPPPEEPL
notes: sphingosine kinase 1 (SPHK1), human, full-length cDNA in pGEX-4T1; pGEX-4T1 normally adds GST at the N-terminus; also called purified SPHK1; source: Rosetta bacterial cells, purified on Glutathione Sepharose beads
- binding result [4]: binds
- binding result [5]: binds
- binding result [6]: binds
